Measured values: paper PMC2719355 (The Journal of Biological Chemistry, 2009)

Target: the molecule itself
Experiment: mass spectrometry

B1: recombinant full-length human butyrylcholinesterase, usual form (rBChE-U) (enzyme)
chain: EDDIIIATKNGKVRGMNLTVFGGTVTAFLGIPYAQPPLGRLRFKKPQSLTKWSDIWNATKYANSCCQNIDQSFPGFHGSEMWNPNTDLSEDCLYLNVWIPAPKPKNATVLIWIYGGGFQTGTSSLHVYDGKFLARVERVIVVSMNYRVGALGFLALPGNPEAPGNMGLFDQQLALQWVQKNIAAFGGNPKSVTLFGESAGAASVSLHLLSPGSHSLFTRAILQSGSFNAPWAVTSLYEARNRTLNLAKLTGCSRENETEIIKCLRNKDPQEILLNEAFVVPYGTPLSVNFGPTVDGDFLTDMPDILLELGQFKKTQILVGVNKDEGTAFLVYGAPGFSKDNNSIITRKEFQEGLKIFFPGVSEFGKESILFHYTDWVDDQRPENYREALGDVVGDYNFICPALEFTKKFSEWGNNAFFYYFEHRSSKLPWPEWMGVMHGYEIEFVFGLPLERRDNYTKAEEILSRSIVKRWANFAKYGNPNETQNNSTSWPVFKSTEQKYLTLNTESTRIMTKLRAQQCRFWTSFFPKVLEMTGNIDEAEWEWKAGFHRWNNYMMDWKNQFNDYTSKKESCVGL
stoichiometry N: 2
